Test results published in patent US20240318156A1.

T1: Recombinant human GM2 activator protein (GM2AP) containing an N-terminal 6×-histidine tag, P17900
T1 chain: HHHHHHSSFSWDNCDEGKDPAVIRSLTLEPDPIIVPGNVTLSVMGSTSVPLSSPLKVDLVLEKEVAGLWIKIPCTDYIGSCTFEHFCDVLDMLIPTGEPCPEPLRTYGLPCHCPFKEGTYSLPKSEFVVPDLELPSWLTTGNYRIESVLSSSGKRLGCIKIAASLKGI


How the values were obtained:
[1] = target: T1, Recombinant human GM2 activator protein …
[2] = target: cation independent mannose 6-phosphate receptor (CI-MPR) (human) (UniProt P11717); assay: cell-based or functional assay
Sequence of UniProt P11717 (P11717 41-2491): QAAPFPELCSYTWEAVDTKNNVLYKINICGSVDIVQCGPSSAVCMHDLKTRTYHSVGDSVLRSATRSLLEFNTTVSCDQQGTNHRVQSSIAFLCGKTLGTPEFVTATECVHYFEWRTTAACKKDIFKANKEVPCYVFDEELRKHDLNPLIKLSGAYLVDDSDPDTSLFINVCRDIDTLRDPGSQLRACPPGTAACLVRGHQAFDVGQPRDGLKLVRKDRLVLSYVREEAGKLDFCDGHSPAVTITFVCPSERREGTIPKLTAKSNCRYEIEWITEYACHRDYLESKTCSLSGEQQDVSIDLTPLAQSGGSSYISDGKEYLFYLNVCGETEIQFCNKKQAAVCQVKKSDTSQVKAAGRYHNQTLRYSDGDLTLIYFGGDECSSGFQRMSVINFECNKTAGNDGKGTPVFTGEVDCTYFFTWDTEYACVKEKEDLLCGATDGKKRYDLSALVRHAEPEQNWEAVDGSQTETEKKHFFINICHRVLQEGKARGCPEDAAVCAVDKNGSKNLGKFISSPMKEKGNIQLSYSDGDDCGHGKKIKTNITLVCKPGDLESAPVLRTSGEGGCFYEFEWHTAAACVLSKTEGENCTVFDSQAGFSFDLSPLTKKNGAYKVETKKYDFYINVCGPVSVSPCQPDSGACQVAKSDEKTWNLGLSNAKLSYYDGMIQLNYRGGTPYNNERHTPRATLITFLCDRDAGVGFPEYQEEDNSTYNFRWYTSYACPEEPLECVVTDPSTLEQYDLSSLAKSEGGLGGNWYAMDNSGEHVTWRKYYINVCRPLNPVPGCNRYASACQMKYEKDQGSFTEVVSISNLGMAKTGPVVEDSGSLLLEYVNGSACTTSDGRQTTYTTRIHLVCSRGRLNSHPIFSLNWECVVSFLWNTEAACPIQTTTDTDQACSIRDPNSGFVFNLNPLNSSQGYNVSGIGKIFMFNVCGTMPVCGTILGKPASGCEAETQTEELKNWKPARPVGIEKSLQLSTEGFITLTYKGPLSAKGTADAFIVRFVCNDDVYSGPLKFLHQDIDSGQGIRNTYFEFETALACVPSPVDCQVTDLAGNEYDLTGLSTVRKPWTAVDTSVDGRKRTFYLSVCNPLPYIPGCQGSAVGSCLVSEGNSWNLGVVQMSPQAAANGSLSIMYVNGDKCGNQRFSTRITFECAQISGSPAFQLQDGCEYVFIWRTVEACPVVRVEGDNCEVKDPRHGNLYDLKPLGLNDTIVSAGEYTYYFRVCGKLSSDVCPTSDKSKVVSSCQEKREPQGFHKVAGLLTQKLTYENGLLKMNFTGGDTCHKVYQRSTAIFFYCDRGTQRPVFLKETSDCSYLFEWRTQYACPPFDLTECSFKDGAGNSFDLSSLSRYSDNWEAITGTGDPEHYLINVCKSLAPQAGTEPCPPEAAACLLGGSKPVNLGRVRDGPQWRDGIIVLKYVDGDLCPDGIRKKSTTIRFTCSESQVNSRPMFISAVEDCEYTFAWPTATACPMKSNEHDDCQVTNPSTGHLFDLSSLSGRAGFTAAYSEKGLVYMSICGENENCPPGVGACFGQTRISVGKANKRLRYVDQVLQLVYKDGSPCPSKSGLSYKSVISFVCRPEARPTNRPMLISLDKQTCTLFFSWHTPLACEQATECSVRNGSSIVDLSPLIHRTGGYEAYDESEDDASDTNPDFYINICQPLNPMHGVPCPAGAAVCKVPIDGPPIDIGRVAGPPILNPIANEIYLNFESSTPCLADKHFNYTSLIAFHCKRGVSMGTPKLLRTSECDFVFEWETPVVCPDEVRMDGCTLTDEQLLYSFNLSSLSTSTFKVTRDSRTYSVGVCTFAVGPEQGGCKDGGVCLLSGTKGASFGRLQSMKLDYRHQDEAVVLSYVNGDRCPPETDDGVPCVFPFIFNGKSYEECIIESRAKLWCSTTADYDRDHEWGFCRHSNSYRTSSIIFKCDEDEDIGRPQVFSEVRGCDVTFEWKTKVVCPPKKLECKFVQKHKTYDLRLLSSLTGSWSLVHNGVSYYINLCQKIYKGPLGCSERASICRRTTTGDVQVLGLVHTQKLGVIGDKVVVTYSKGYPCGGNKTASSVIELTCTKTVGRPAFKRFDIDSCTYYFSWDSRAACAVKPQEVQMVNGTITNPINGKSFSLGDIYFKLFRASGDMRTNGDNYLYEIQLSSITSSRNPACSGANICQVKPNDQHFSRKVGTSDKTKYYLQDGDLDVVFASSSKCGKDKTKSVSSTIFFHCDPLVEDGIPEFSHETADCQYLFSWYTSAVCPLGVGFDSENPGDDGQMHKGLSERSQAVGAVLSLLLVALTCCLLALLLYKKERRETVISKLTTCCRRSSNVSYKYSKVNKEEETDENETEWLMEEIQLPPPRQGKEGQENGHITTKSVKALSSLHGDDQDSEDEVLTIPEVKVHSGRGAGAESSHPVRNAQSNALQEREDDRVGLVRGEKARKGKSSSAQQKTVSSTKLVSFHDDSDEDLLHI

| Binder | K uptake (nM) MUG activity [2] [nM] | Km (Kinetic data of FIG. 2, GM2AP-dependent GM2 degradation) [1] [µM] | Km GM2AP [1] [µM] | Km [GM2AP], µM (GM2AP-dependent GM2 hydrolysis, natural substrate assay) [1] [µM] | GM2AP-dependent kinetics of GM2 hydrolysis [1] |
| --- | --- | --- | --- | --- | --- |
| Mod2B (Modified β/β homodimer) (protein) TQVQQLLVSITLQSECDAFPNISSDESYTLLVKEPVAVLKANRVWGALRGLETFSQLVYQDSYGTFTINESTIIDSPRFSHRGILIDTSRHYLPVKIILKTLDAMAFNKFNVLHWHIVDDQSFPYQSITFPELSNKGSYSLSHVYTPNDVRMVIEYARLRGIRVLPEFDTPGHTLSWGKGQKDLLTPCYSGSEPSGTFGPINPTLNTTYSFLTTFFKEISEVFPDQFIHLGGDEVEFKCWESNPKIQDFMRQKGFGTDFKKLESFYIQKVLDIIATINKGSIVWQEVFDDKAKLAPGTIVEVWKDSAYPEELSRVTASGFPVILSAPWYLNRISYGQDWRKYYKVEPLDFGGTQKQKQLFIGGEACLWGEYVDATNLTPRLWPRASAVGERLWSSKDVRDMDDAYDRLTRHRCRMVERGIAAQPLYAGYCNHENM |  | 20.4 |  | 20.4 | GM2AP binding kinetics to the Hex homodimers was comparable to the wild type heterodimer |
| HexA (wild-type; α/β heterodimer) (protein) chain 1: TLEKNVLVVSVVTPGCNQLPTLESVENYTLTINDDQCLLLSETVWGALRGLETFSQLVWKSAEGTFFINKTEIEDFPRFPHRGLLLDTSRHYLPLSSILDTLDVMAYNKLNVFHWHLVDDPSFPYESFTFPELMRKGSYNPVTHIYTAQDVKEVIEYARLRGIRVLAEFDTPGHTLSWGPGIPGLLTPCYSGSEPSGTFGPVNPSLNNTYEFMSTFFLEVSSVFPDFYLHLGGDEVDFTCWKSNPEIQDFMRKKGFGEDFKQLESFYIQTLLDIVSSYGKGYVVWQEVFDNKVKIQPDTIIQVWREDIPVNYMKELELVTKAGFRALLSAPWYLNRISYGPDWKDFYIVEPLAFEGTPEQKALVIGGEACMWGEYVDNTNLVPRLWPRAGAVAERLWSNKLTSDLTFAYERLSHFRCELLRRGVQAQPLNVGFCEQEFEQT chain 2: ARAPSVSAKPGPALWPLPLSVKMTPNLLHLAPENFYISHSPNSTAGPSCTLLEEAFRYHGYIFGFYKWHHEPAEFQAKTQVQQLLVSITLQSECDAFPNISSDESYTLLVKEPVAVLKANRVWGALRGLETFSQLVYQDSYGTFTINESTIIDSPRFSHRGILIDTSRHYLPVKIILKTLDAMAFNKFNVLHWHIVDDQSFPYQSITFPELSNKGSYSLSHVYTPNDVRMVIEYARLRGIRVLPEFDTPGHTLSWGKGQKDLLTPCYSRQNKLDSFGPINPTLNTTYSFLTTFFKEISEVFPDQFIHLGGDEVEFKCWESNPKIQDFMRQKGFGTDFKKLESFYIQKVLDIIATINKGSIVWQEVFDDKAKLAPGTIVEVWKDSAYPEELSRVTASGFPVILSAPWYLDLISYGQDWRKYYKVEPLDFGGTQKQKQLFIGGEACLWGEYVDATNLTPRLWPRASAVGERLWSSKDVRDMDDAYDRLTRHRCRMVERGIAAQPLYAGYCNHENM | 3.3 | 14.5 | 14.5 | 14.5 |  |

Now from value to binder, other results behind:

| K uptake (nM) MUG activity [2] [nM] | Binder | Km (Kinetic data of FIG. 2, GM2AP-dependent GM2 degradation) [1] [µM] | Km GM2AP [1] [µM] | Km [GM2AP], µM (GM2AP-dependent GM2 hydrolysis, natural substrate assay) [1] [µM] | GM2AP-dependent kinetics of GM2 hydrolysis [1] |
| --- | --- | --- | --- | --- | --- |
| 5.8 | HexD3 (Modified α/α homodimer) (protein) ARAPSVSAKPGPALWPLPLSVKMTPNLLHLAPENFYISHSPNSTAGPSCTLLEEAFRRYHGYIFGFYKWHHEPAEFQAKTQVQQLLVSITLQSECDAFPNISSDESYTLLVKEPVAVLKANRVWGALRGLETFSQLVYQDSYGTFTINESTIIDSPRFPHRGLLLDTSRHYLPLKSILDTLDVMAYNKLNVFHWHLVDDQSFPYESFTFPELMRKGSYSLSHIYTAQDVKEVIEYARLRGIRVLAEFDTPGHTLSWGPGIPGLLTPCYSGSEPSGTFGPVNPSLNNTYEFMSTFFLEVSSVFPDFYLHLGGDEVDFTCWKSNPEIQDFMRKKGFGEDFKQLESFYIQTLLDIVSSYGKGYVVWQEVFDNKVKIQPDTIIQVWREDIPVNYMKELELVTKAGFRALLSAPWYLNRISYGQDWRKFYKVEPLAFEGTPEQKALVIGGEACMWGEYVDATNLVPRLWPRAGAVAERLWSNKLTRDMDDAYDRLSHFRCELVRRGVAAQPLYAGYCNQEFEQT | 13.7 | 13.7 | 13.7 |  |
| 130 | HexM (Modified α/α homodimer) (protein) TLEKNVLVVSVVTPGCNQLPTLESVENYTLTINDDQCLLLSETVWGALRGLETFSQLVWKSAEGTFFINKTEIEDFPRFPHRGLLLDTSRHYLPLKSILDTLDVMAYNKLNVFHWHLVDDQSFPYESFTFPELMRKGSYSLSHIYTAQDVKEVIEYARLRGIRVLAEFDTPGHTLSWGPGIPGLLTPCYSGSEPSGTFGPVNPSLNNTYEFMSTFFLEVSSVFPDFYLHLGGDEVDFTCWKSNPEIQDFMRKKGFGEDFKQLESFYIQTLLDIVSSYGKGYVVWQEVFDNKVKIQPDTIIQVWREDIPVNYMKELELVTKAGFRALLSAPWYLNRISYGQDWRKFYKVEPLAFEGTPEQKALVIGGEACMWGEYVDATNLVPRLWPRAGAVAERLWSNKLTRDMDDAYDRLSHFRCELVRRGVAAQPLYAGYCNQEFEQT | 19.6 | 19.6 | 19.6 | GM2AP binding kinetics to the Hex homodimers was comparable to the wild type heterodimer |
